Data on one molecule can be found in patent publication US20110076272A1, “THERAPEUTIC METHODS AND COMPOSITIONS” (priority 2009, published 2011).

Data set [1] deals with purified recombinant human LOXL2. Put plainly: Amplex Red assay of LOXL2 enzymatic activity. Format: biochemical. How it is done:
A mouse anti-human LOXL2 antibody (AB0023) was obtained by immunization with full-length LOXL2 protein and purified by SEC-HPLC (Tosoh TSKGEL G3000SWXL 7.8×300). Analytical size exclusion chromatography was used to assess antibody stability and purity. Purified AB0023 was run on SDS-PAGE Coomassie (Invitrogen BT 4-12% Gels) reducing and non-reducing gels to assess purity. Potency was examined by ELISA to determine Kd, and effect on LOXL2 enzymatic activity was determined using an Amplex Red Assay (Molecular Probes/Invitrogen, Carlsbad, Calif.). Antibody concentration was measured by absorbance at 280 nm using an Extinction Coefficient Abs 0.1% of 1.4. Identity was assayed by isoelectric focusing (Invitrogen pH 3-10 IEF Gels). For safety analysis, endotoxin levels were measured at a sensitivity range of 0.01-1 EU/ml (Charles River EndoSafe PTS).

A short description of data set [2]: Pilot repeat-dose studies in cynomolgus monkeys. Conditions: repeat dosing at 100 mg/kg. Format: in vivo.

Chain of purified recombinant human LOXL2 (Q9Y4K0 318-774 limits assumed): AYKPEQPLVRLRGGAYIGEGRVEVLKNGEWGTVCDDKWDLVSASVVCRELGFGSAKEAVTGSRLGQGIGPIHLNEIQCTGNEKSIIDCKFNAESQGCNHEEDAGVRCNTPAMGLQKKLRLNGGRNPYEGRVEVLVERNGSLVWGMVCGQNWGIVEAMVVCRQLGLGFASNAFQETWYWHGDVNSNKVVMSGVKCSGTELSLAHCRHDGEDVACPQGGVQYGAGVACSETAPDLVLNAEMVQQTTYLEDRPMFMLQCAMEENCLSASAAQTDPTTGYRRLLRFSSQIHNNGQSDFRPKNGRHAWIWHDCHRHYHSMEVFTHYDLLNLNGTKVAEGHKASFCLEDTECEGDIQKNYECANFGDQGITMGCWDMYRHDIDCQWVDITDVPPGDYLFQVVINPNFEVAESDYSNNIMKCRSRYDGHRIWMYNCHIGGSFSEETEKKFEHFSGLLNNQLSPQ

B1: AB0024: humanized anti-LOXL2 variant of AB0023; heavy chain variable region SEQ ID NO:3, light chain SEQ ID NO:4 (antibody, listed as Mus musculus, V domains shown)
VH: QVQLVQSGAEVKKPGASVKVSCKASGYAFTYYLIEWVRQAPGQGLEWIGVINPGSGGTNYNEKFKGRATITADKSTSTAYMELSSLRSEDTAVYFCARNWMNFDYWGQGTTVTVSS
VL: DIVMTQTPLSLSVTPGQPASISCRSSKSLLHSNGNTYLYWFLQKPGQSPQFLIYRMSNLASGVPDRFSGSGSGTDFTLKISRVEAEDVGVYYCMQHLEYPYTFGGGTKVEIK
modifications: Humanized heavy chain; Humanized light chain
For B1, the “mode of inhibition of LOXL2” value in data set [1] is “non-competitive allosteric inhibitors”. The tolerability result in data set [2] is “well tolerated”.
